A value given as a limit tells only on which side of the number the result lay.

The experiment concerns the target T1, mCherry-APPL1-delta-PTB.
T1 sequence (Q9UKG1 whole entry, species assumed, looked up): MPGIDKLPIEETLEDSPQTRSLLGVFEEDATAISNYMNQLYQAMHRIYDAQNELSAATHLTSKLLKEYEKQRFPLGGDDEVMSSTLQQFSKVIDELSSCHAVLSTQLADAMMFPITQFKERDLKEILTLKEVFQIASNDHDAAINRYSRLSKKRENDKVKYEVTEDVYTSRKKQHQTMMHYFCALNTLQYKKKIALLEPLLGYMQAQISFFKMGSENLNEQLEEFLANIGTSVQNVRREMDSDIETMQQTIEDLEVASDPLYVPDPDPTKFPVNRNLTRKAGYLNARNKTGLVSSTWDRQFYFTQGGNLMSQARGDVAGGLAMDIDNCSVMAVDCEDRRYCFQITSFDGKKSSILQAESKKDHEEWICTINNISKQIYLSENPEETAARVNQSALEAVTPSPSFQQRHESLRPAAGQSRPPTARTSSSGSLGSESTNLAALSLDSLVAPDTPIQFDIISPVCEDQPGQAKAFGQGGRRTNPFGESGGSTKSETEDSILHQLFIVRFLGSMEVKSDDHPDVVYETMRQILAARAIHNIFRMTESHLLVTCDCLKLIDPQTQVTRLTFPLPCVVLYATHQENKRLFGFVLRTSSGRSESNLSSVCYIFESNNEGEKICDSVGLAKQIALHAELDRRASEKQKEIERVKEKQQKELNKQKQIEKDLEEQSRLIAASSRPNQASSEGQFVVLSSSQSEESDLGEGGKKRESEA
In words: FRET or BRET; FRET/FLIM in live primary hippocampal neurons at DIV 7, 37 °C; GFP-Akt1 donor, mCherry fusion acceptor; donor lifetime measured in cell body and growth cone; untreated. A general note: Bioluminescence resonance energy transfer reports proximity on the nanometre scale.

GFP-Akt1, sequence (P31749 whole entry, the tested form may be a part): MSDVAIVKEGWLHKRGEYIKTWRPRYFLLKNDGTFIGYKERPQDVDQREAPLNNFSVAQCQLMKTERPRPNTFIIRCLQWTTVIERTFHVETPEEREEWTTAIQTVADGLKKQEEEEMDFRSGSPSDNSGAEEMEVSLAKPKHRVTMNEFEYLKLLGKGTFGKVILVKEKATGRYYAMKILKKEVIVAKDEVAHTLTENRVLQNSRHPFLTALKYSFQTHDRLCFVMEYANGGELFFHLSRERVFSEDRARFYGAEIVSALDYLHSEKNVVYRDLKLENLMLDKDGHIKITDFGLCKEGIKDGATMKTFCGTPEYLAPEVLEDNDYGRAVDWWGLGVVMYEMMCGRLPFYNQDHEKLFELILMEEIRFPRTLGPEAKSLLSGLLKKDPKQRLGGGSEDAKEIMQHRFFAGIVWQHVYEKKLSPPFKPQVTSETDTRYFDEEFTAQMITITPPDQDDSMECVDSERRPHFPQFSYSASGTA

GFP-Akt1 (from UniProt P31749 1-480): the FRET efficiency (growth cone) is less than 1%.

The values above are taken from PMC6385319.
